The values that follow come from IntAct's records for PubMed 17392788.

B1: "Lethal(2) giant larvae protein homolog SRO7" (Saccharomyces cerevisiae), Q12038 (parent)
chain: MFGSKRLKNVKEAFKSLKGQNSETPIENSKASFKSKNSKTSTISKDAKSSSSLKIPISSNNKNKIFSLAETNKYGMSSKPIAAAFDFTQNLLAIATVTGEVHIYGQQQVEVVIKLEDRSAIKEMRFVKGIYLVVINAKDTVYVLSLYSQKVLTTVFVPGKITSIDTDASLDWMLIGLQNGSMIVYDIDRDQLSSFKLDNLQKSSFFPAARLSPIVSIQWNPRDIGTVLISYEYVTLTYSLVENEIKQSFIYELPPFAPGGDFSEKTNEKRTPKVIQSLYHPNSLHIITIHEDNSLVFWDANSGHMIMARTVFETEINVPQPDYIRDSSTNAAKISKVYWMCENNPEYTSLLISHKSISRGDNQSLTMIDLGYTPRYSITSYEGMKNYYANPKQMKIFPLPTNVPIVNILPIPRQSPYFAGCHNPGLILLILGNGEIETMLYPSGIFTDKASLFPQNLSWLRPLATTSMAASVPNKLWLGALSAAQNKDYLLKGGVRTKRQKLPAEYGTAFITGHSNGSVRIYDASHGDIQDNASFEVNLSRTLNKAKELAVDKISFAAETLELAVSIETGDVVLFKYEVNQFYSVENRPESGDLEMNFRRFSLNNTNGVLVDVRDRAPTGVRQGFMPSTAVHANKGKTSAINNSNIGFVGIAYAAGSLMLIDRRGPAIIYMENIREISGAQSACVTCIEFVIMEYGDDGYSSILMVCGTDMGEVITYKILPASGGKFDVQLMDITNVTSKGPIHKIDAFSKETKSSCLATIPKMQNLSKGLCIPGIVLITGFDDIRLITLGKSKSTHKGFKYPLAATGLSYISTVEKNNDRKNLTVIITLEINGHLRVFTIPDFKEQMSEHIPFPIAAKYITESSVLRNGDIAIRVSEFQASLFSTVKEQDTLAPVSDTLYINGIRIPYRPQVNSLQWARGTVYCTPAQLNELLGGVNRPASKYKESIIAEGSFSERSSDDNNANHPEHQYTKPTRKGRNSSYGVLRNVSRAVETRWDAVEDRFNDYATAMGETMNEAVEQTGKDVMKGALGF

This test covers variants of B1. To be noted: with sec9_yeast SEC9, P40357.
Sequence of sec9_yeast SEC9, P40357 (P40357 whole entry): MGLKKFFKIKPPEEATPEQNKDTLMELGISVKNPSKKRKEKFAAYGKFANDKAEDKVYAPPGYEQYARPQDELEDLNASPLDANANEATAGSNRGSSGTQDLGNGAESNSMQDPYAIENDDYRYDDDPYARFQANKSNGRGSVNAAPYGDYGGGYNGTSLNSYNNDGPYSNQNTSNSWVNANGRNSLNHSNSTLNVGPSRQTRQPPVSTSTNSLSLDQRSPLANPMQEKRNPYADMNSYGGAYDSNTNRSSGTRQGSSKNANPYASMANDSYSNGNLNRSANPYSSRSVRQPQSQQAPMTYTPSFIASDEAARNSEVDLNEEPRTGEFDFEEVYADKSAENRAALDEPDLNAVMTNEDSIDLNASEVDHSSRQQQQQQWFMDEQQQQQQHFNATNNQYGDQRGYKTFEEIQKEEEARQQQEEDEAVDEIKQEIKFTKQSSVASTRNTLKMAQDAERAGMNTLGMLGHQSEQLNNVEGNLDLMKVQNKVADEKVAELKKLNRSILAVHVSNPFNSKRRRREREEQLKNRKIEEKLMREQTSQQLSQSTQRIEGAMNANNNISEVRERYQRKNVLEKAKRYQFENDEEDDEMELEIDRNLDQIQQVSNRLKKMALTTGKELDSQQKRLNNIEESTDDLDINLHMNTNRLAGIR
P721A: the “effect of a mutation on the interaction” value is recorded as “disrupting interaction strength”.
Take Y700A: the “effect of a mutation on the interaction” value is listed as “disrupting interaction strength”.
For the variant E562A, the “effect of a mutation on the interaction” value is “decreasing interaction strength”.
For M764A, the “effect of a mutation on the interaction” value was “decreasing interaction strength”.
R664A: the “effect of a mutation on the interaction” value is “decreasing interaction strength”.
